Reference: patent publication US20190345230A1
Numbering of substitutions follows the chain as printed.

How the values were obtained:
Test in all cases: cell-based or functional assay
[1] = target: HA protein of B/Singapore/3/1964 (Influenza B virus B/Singapore/3/1964) (UniProt P03464)
[2] = target: HA protein of B/Xiamen/1346/2008 (Victoria lineage) (Influenza B virus B/Xiamen/1346/2008 (Victoria lineage)) (UniProt P22092)
[3] = target: HA protein of influenza A virus A/Brisbane/10/2007 (seasonal H3N2) (Influenza A virus A/Brisbane/10/2007 (H3N2))
[4] = target: HA protein of influenza B virus B/Brisbane/33/2008 (Victoria lineage) (Influenza B virus B/Brisbane/33/2008)
[5] = target: HA protein of influenza B virus B/Brisbane/60/2008 (Victoria lineage) (Influenza B virus B/Brisbane/60/2008)
[6] = target: HA protein of influenza B virus B/Florida/4/2006 (Yamagata lineage) (Influenza B virus B/Florida/4/2006)
[7] = target: HA protein of influenza B virus B/Great Lakes/1739/1954 (Influenza B virus B/Great Lakes/1739/1954)
[8] = target: HA protein of influenza B virus B/Harbin/7/1994 (Yamagata lineage) (Influenza B virus B/Harbin/7/1994)
[9] = target: HA protein of influenza B virus B/Hong Kong/330/2001 (Victoria lineage) (Influenza B virus B/Hong Kong/330/2001)
[10] = target: HA protein of influenza B virus B/Lee/1940 (Influenza B virus B/Lee/1940) (UniProt P03460)
[11] = target: HA protein of influenza B virus B/Malaysia/2506/2004 (Victoria lineage) (Influenza B virus B/Malaysia/2506/2004)
[12] = target: HA protein of influenza B virus B/Maryland/1/1959 (Influenza B virus B/Maryland/1/1959) (UniProt P03461)
[13] = target: HA protein of influenza B virus B/Taiwan/2/1962 (Influenza B virus B/Taiwan/2/1962)
[14] = target: HA protein of influenza B virus B/Xiamen/1147/2008 (Yamagata lineage) (Influenza B virus B/Xiamen/1147/2008)
[15] = target: HA protein of influenza B virus B/Xiamen/165/2007 (Victoria lineage) (Influenza B virus B/Xiamen/165/2007)
[16] = target: HA protein of influenza B virus B/Xiamen/3043/2006 (Victoria lineage) (Influenza B virus B/Xiamen/3043/2006)
[17] = target: HA protein of influenza B virus B/Xiamen/756/2007 (Yamagata lineage) (Influenza B virus B/Xiamen/756/2007)
[18] = target: HA protein of influenza B virus B/Xiamen/891/2006 (Yamagata lineage) (Influenza B virus B/Xiamen/891/2006)
[19] = target: HA protein of influenza B virus B/Xiamen/N639/2010 (Victoria lineage) (Influenza B virus B/Xiamen/N639/2010)
[20] = target: HA protein of influenza B virus B/Xiamen/N678/2012 (Victoria lineage) (Influenza B virus B/Xiamen/N678/2012)
[21] = target: HA protein of influenza B virus B/Xiamen/N697/2012 (Yamagata lineage) (Influenza B virus B/Xiamen/N697/2012)

B1: monoclonal antibody 12G6 (antibody, V domains shown)
VH: EVHLQQSGPELVKPGASVKMSCEASGYTFTDYYVAWVKQSPGESFEWIGRVNPYSGGTSYNQKFKGKATLIVDKSSSTAYMELSSLTSEDSAVYYCARWDYGVYEGYIDYWGQGSALTV
VL: DIQMTQSPASLSVSVGETVTITCRASEKIYSNLAWYQQKEGKSPQLLVYAAIRLADGVPSRFSGSGSGTQFSLKINSLQSEDFGTYYCQHFWGTPLTFGAGTKLELK
1600: HI titer (dilution fold) [7]
800 titer: Neutralization titer [21]
> 25600 titer: Neutralization titer [4] | Neutralization titer [5] | Neutralization titer [6] | Neutralization titer [7] | Neutralization titer [9]
12800 titer: Neutralization titer [11]
12800: HI titer (dilution fold) [6]
200: HI titer (dilution fold) [8]
6400: HI titer (dilution fold) [10]
3200 titer: Neutralization titer [2] | Neutralization titer [8] | Neutralization titer [12] | Neutralization titer [16] | Neutralization titer [19]
6400 titer: Neutralization titer [1] | Neutralization titer [10] | Neutralization titer [15]
< 100: HI titer (dilution fold) [2] | HI titer (dilution fold) [3] | HI titer (dilution fold) [12] | HI titer (dilution fold) [13] | HI titer (dilution fold) [14] | HI titer (dilution fold) [15] | HI titer (dilution fold) [16] | HI titer (dilution fold) [17] | HI titer (dilution fold) [18] | HI titer (dilution fold) [19] | HI titer (dilution fold) [20] | HI titer (dilution fold) [21]
400: HI titer (dilution fold) [1]
1600 titer: Neutralization titer [13] | Neutralization titer [14] | Neutralization titer [17] | Neutralization titer [18] | Neutralization titer [20]
3200: HI titer (dilution fold) [4] | HI titer (dilution fold) [5] | HI titer (dilution fold) [9] | HI titer (dilution fold) [11]
< 100 titer: Neutralization titer [3]

B2: monoclonal antibody 7G6 (antibody, V domains shown)
VH: EVQLQQSGPELVKPGASVKISCKASGYTFTDYNMHWVKQSLGKSLEWIGYIYPNNGGTGYNQKFESKATLTVDNSSSTAYMELRTLTSEDSAVYYCVRSGAYYFNYLVPYFDYWGQGTTLTVSS
VL: NIVLTQSPASLAVSLGQRATISCRASESVDIYGNSFMHWYQQKPGQPPKLLIYLASKLECGVCARFNGSGCRTDFTLAIDPVEGDDGATYYCQQNYEDPWTFGGGTKLEIK
6400 titer: Neutralization titer [2] | Neutralization titer [20]
3200 titer: Neutralization titer [19]
12800 titer: Neutralization titer [5] | Neutralization titer [13] | Neutralization titer [15] | Neutralization titer [16] | Neutralization titer [17]
> 25600 titer: Neutralization titer [1] | Neutralization titer [4] | Neutralization titer [6] | Neutralization titer [9] | Neutralization titer [11] | Neutralization titer [14] | Neutralization titer [18] | Neutralization titer [21]
1600: HI titer (dilution fold) [10]
< 100: HI titer (dilution fold) [3] | HI titer (dilution fold) [7] | HI titer (dilution fold) [8]
800 titer: Neutralization titer [12]
< 100 titer: Neutralization titer [3] | Neutralization titer [7] | Neutralization titer [8]
6400: HI titer (dilution fold) [2] | HI titer (dilution fold) [11] | HI titer (dilution fold) [12] | HI titer (dilution fold) [20]
> 25600: HI titer (dilution fold) [6] | HI titer (dilution fold) [9] | HI titer (dilution fold) [14] | HI titer (dilution fold) [18] | HI titer (dilution fold) [21]
1600 titer: Neutralization titer [10]
3200: HI titer (dilution fold) [1] | HI titer (dilution fold) [4] | HI titer (dilution fold) [5] | HI titer (dilution fold) [19]
12800: HI titer (dilution fold) [13] | HI titer (dilution fold) [15] | HI titer (dilution fold) [16] | HI titer (dilution fold) [17]

B3: monoclonal antibody 11B10 (antibody, V domains shown)
VH: B2 VH with D31G, L41H, Y50K, G57V, K63E, E65R, T85S, V93I, Y95F, F104V
VL: B2 VL with L15P, V29I, Q42K, L54R, K57N, C60S, C63P, C71S, A78T
< 100: HI titer (dilution fold) [1] | HI titer (dilution fold) [3] | HI titer (dilution fold) [4] | HI titer (dilution fold) [5] | HI titer (dilution fold) [7] | HI titer (dilution fold) [8] | HI titer (dilution fold) [10] | HI titer (dilution fold) [12]
6400 titer: Neutralization titer [6] | Neutralization titer [16]
3200: HI titer (dilution fold) [2] | HI titer (dilution fold) [11] | HI titer (dilution fold) [15]
> 25600 titer: Neutralization titer [9] | Neutralization titer [11]
< 100 titer: Neutralization titer [3] | Neutralization titer [7] | Neutralization titer [8] | Neutralization titer [10] | Neutralization titer [12]
6400: HI titer (dilution fold) [16]
800: HI titer (dilution fold) [9] | HI titer (dilution fold) [13] | HI titer (dilution fold) [14] | HI titer (dilution fold) [18] | HI titer (dilution fold) [21]
3200 titer: Neutralization titer [2] | Neutralization titer [5] | Neutralization titer [15]
400: HI titer (dilution fold) [6] | HI titer (dilution fold) [17] | HI titer (dilution fold) [19] | HI titer (dilution fold) [20]
800 titer: Neutralization titer [1] | Neutralization titer [4] | Neutralization titer [13] | Neutralization titer [14] | Neutralization titer [18] | Neutralization titer [21]
400 titer: Neutralization titer [17] | Neutralization titer [19] | Neutralization titer [20]
